Source: publication PMC6325770

Molecular target: enhanced green fluorescent protein-labelled G-protein-coupled receptor kinase-interacting protein 1 (GIT1) (UniProt Q9Y2X7)
Assay: MST; enhanced green fluorescent protein-labelled GIT1 in human embryonic kidney 293 cell lysate at constant 20 nmol/L, serial dilution of purified CLIC4; Monolith NT.115

Chain of UniProt Q9Y2X7 (Q9Y2X7 whole entry): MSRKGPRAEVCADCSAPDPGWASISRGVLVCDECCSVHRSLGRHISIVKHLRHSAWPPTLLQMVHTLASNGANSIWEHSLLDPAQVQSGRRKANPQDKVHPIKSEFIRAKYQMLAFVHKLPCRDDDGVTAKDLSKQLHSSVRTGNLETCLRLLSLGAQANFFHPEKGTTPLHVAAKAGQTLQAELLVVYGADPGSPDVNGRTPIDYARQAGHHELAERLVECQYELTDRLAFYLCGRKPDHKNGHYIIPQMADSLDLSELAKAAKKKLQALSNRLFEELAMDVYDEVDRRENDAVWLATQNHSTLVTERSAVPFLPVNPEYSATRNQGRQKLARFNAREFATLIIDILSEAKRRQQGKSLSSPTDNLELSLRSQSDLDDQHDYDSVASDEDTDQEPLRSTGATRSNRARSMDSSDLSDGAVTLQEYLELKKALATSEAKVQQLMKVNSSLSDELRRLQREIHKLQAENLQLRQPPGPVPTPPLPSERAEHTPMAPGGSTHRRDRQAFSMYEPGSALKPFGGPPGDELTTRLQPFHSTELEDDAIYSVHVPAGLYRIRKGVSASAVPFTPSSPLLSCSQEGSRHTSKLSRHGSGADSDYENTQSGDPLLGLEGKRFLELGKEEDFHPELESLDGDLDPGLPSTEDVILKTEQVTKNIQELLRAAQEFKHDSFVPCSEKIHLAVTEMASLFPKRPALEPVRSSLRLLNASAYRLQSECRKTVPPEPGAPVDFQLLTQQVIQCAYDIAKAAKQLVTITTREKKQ

Substance: purified CLIC4 (ab104744; Abcam) (from UniProt Q9Y696 1-253) (natural protein)
- Kd: 1.8 µM
